The values below are quoted from earlier work in publication PMC7905041.

As usually defined, the Kd is the constant that tells how readily two partners part at equilibrium.

The target in this data set is CD40 ECD (Homo sapiens) (UniProt P25942). The experiment in a line: SPR. On the technique in general: In SPR one partner is held on a chip, and binding of the other changes the refractive index at the surface.

Take CD40 CRD1/PLAD (from UniProt P25942): the Kd is 600 nM.
